Measurements taken from article PMC6249382, “The Maize Sulfite Reductase Is Involved in Cold and Oxidative Stress Responses” (Frontiers in Plant Science, 2018).

Substrate: O=S(O)O
Assay: steady-state kinetics, Lineweaver-Burk plot
Type: biochemical, Zea mays
Settings: 400 μM NADPH as electron donor (printed "electron acceptor"); sulfite 2.5-400 μM; 1.0 μg enzyme

B1: ZmSiR (Zea mays) (protein)
chain: MSGAIGGAEVHGFRGAAAQLPRSRVLGRPIRVAPPAAARPGGASAGSIRAVSAPAKKDASEVKRSKVEIIKEKSNFLRYPLNEELVSEAPNINESAVQLIKFHGSYQQTDRDVRGQKNYSFMLRTKNPCGKVPNQLYLAMDTLADEFGIGTLRLTTRQTFQLHGVLKKNLKTVLSTVIKNMGSTLGACGDLNRNVLAPAAPYVKKDILFAQQTAENIAALLTPQSGAYYDLWVDGEKIMSAEEPPEVTKARNDNSHGTNFPDSPEPIYGTQYLPRKFKVAVTAAGDNSVDILTNDIGVVVVSDDAGEPIGFNIYVGGGMGRTHRVETTFPRLADPLGYVPKEDILYAIKAIVVTQRENGRRDDRKYSRMKYMIDRWGIDRFRAEVEKYYGKKFESFRPLPEWQFNSYLGWQEQGDGKLFYGVHVDNGRVGGQAKKTLREIIEKYNLDVSITPNQNLILCGIDQAWREPITTALAQAGLLEPKDVDPLNLTAMACPALPLCPLAQTEAERGILPILKRIRAVFNKVGIKDSESVVVRITGCPNGCARPYMAELGFVGDGPKSYQIWLGGTPNQSTLAESFMDKVKLDDIEKVLEPLFTYWNGTRQEGESFGSFTNRTGFDKLKEVVNKWAESPSAA
  Km: 5.32 ± 0.26 µM
